This is an account of results in article PMC7831362 (mAbs, 2021).

Test [1] addresses natively expressed mouse PD-L1 on mouse tumor cells (Mus musculus (endogenous in Renca cells), UniProt Q9EP73). Description: flow cytometry on cells. For orientation: A flow cytometer gives signals particle by particle.
For test [2], the target named is recombinant mouse PD-L1–human Fc chimeric fusion protein (mouse, UniProt Q9EP73 19-239, conjugated with europium cryptate trisbipyridine–N-hydroxysuccinimide). Nature of the test: AlphaScreen or HTRF. Background: Alpha assays give light when donor and acceptor beads are brought close together.
Sequence of recombinant mouse PD-L1–human Fc chimeric fusion protein (Q9EP73 19-239, change not shown): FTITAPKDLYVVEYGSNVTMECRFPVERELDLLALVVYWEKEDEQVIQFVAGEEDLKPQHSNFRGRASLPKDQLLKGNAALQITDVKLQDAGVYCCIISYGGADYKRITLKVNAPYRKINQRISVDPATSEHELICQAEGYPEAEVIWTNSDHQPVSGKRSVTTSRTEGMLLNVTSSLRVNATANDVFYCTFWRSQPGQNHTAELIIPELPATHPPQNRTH

Sequence of natively expressed mouse PD-L1 on mouse tumor cells (Q9EP73 19-290): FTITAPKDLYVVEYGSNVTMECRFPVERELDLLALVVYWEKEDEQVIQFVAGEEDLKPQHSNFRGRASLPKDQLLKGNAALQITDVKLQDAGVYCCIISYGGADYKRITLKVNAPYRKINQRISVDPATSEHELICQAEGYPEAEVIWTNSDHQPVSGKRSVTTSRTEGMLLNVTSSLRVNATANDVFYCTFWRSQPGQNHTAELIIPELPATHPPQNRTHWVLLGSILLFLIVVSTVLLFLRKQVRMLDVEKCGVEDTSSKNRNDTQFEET

B1: anti-mouse PD-L1 hybridoma clone 17 (antibody, V domains shown)
VH: EVQLVESGGGLVQPGASLKLSCVASGFTFSDYWMSWVRQNPGKTMEWIGDIKYDGSYTDYAPSLKNRFTISRDNAKSTLYLQMSNVRSEDTATYYCTRATGRRDGYYPTDYFDYWGQGVMVTVSS
VL: DIVLTQSPALAVSLGQRATISCWASQSVSISRYNLMHWYQQKPGQQPKLLIYRASNLAGIPPRFSGSGSGTDFTLTINPVQADDIATYYCQQSRESPNTFGAGTKLELK
With B1, the binding result in test [1] is given as “binds”.

B2: recombinant mouse B7-1/CD80 Fc chimera His-tag protein (Fc fusion, UniProt Q00609 38-246, looked up)
chain: VDEQLSKSVKDKVLLPCRYNSPHEDESEDRIYWQKHDKVVLSVIAGKLKVWPEYKNRTLYDNTTYSLIILGLVLSDRGTYSCVVQKKERGTYEVKHLALVKLSIKADFSTPNITESGNPSADTKRITCFASGGFPKPRFSWLENGRELPGINTTISQDPESELYTISSQLDFNTTRNHTIKCLIKYGDAHVSEDFTWEKPPEDPPDSKN
modifications: conjugated with DyLight-650
Take B2: in test [2], the binding result is “binds”.
